In data set [1] the test system is MS2 coat protein. The experiment in a line: apparent KD of MS2 coat protein, switch ON state; designed switch direction (-1 OFF switch, 1 ON switch): -1; higher = weaker reporter binding. The settings on record: FMN input: 0 or 200 uM; Eterna round: R93 (includes R88 designs). The gist of the method: (§1)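 Apparent KD per design is the median of normalised cluster binding-curve fits. Designed RNA switches transcribed on-chip from Illumina sequencing clusters were titrated with SNAP-549-labelled MS2 coat protein in twofold steps from 0.7 or 1.5 nM to 3 µM, with 0.8–1.5 h down to 10–20 min per step. Buffer: 100 mM Tris-HCl pH 7.5, 80 mM KCl, 4 mM MgCl2, without or with constant ligand.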

Data set [2] deals with MS2 coat protein. The experiment in a line: apparent KD of MS2 coat protein, switch OFF state (with FMN for OFF switches, without FMN for ON switches); designed switch direction (-1 OFF switch, 1 ON switch): -1; higher = weaker reporter binding. The conditions noted are these: FMN input: 0 or 200 uM; Eterna round: R93 (includes R88 designs). The gist of the method:
as §1

This note sets out measurements from the supplement of paper PMC9170038.

In the case of “CUCAAGUGAGGAUAUUCAAGAAAAGAAAAGAAAGAAAAGAAGAAGAAGGCACAUGAGGAUCACCCAUGUAAGAA [EteRNA is fun!]”, the “apparent KD of MS2 coat protein” value came out at 34.9 nM in the data set on MS2 coat protein [1] and 57.5 nM with MS2 coat protein [2].

With “UAAAACAGAGGAUAUACAUGAGGAUCACCCAUGUAAAAAUGUAGAAGGCUGAAAUAAAUAAGAAGGAAAUAAAA [Meechl Ex3 R2 m1]”, the “apparent KD of MS2 coat protein” value was determined as 24.8 nM with MS2 coat protein [1] and 25.6 nM in the data set on MS2 coat protein [2].

Turning to “CUCUAGUCAGGAUAUGGAAGAAAAGAAGAGAAAGAAAAGAACCAGAAGGGACAUGAGGAUCACCCAUGUAAGAA [EteRNA is fun!]”, the entries for the “apparent KD of MS2 coat protein” value in the data set with MS2 coat protein [1] and in the data set with MS2 coat protein [2] were 78.2 nM and 41.8 nM, respectively.

Take “AACAAACAUGAGGAUCACCCAUGUCAGGAUAUGCAAACAACAAACAACAAACAACAAAGCAGAAGGGACAACAA [e1-3]”: the “apparent KD of MS2 coat protein” value is 19.9 nM with MS2 coat protein [1] and 25.1 nM in the data set on MS2 coat protein [2].

Consider “AAGCACAGAGGAUAUACAUGGGUAAAAAAAAAAAAAAAAAAACAUGAGGAUCACCCAUGUAGAAGGCUGUGCAA”, for which the “apparent KD of MS2 coat protein” value with MS2 coat protein [1] is 32.6 nM; with MS2 coat protein [2] it was 24.3 nM.

“AAACUGGUAGGAUAUGCUAGGGCGAUUAAUACGCCGAUAGUACAUGAGGAUCACCCAUGUAGAAGGGCCAGAAA [Mat - Exclusion 2 - JL mod - D65]”: the “apparent KD of MS2 coat protein” value in the data set on MS2 coat protein [1] came to 30.8 nM; in the data set with MS2 coat protein [2], 23.6 nM.

Regarding “AGCUAGUCAGGAUAUACGAAAACGAACGAAGCUGAGAAGGGACAUGAGGAUCACCCAUGUAGAAGGGACUAGCA [Diamond 33]”, the “apparent KD of MS2 coat protein” value in the data set on MS2 coat protein [1] was found to be 36.4 nM; in the data set with MS2 coat protein [2], 107 nM.

In the case of “AAAAGGUGAGGAUAUACGAAAAAAAAAAAAAAAAAAAAAAAGUAGAAGGCACAUGAGGAUCACCCAUGUAAAAA [LROPPY Exclusion 4 - v01_deltaG=2.54]”, the “apparent KD of MS2 coat protein” value stood at 31.3 nM with MS2 coat protein [1] and 41.3 nM in the data set with MS2 coat protein [2].

As for “AAGUUGCUAGGAUAUACUUGGGCAACAAAUAAACUAAUAUAACAUGAGGAUCACCCAUGUAGAAGGAGCAGAAA [JR_Exc002_Sub206]”, the “apparent KD of MS2 coat protein” value is 31.8 nM in the data set on MS2 coat protein [1] and 34.9 nM in the data set with MS2 coat protein [2].

Regarding “AAGAAAGGAGGAUAUACAAAAUAAAAGAAAAGAAAGAAAGAACAUGAGGAUCACCCAUGUAGAAGGCCUAAGAA [Merhotepre Sobekhotep V]”, the “apparent KD of MS2 coat protein” value in the data set with MS2 coat protein [1] was 23.5 nM; in the data set on MS2 coat protein [2], 14.4 nM.

Turning to “AACAAUACAGGAUAUACAUGAGGAUCACCCAUGUGAGAAUUAAGUGGCGUACCACAAGGUAGAAGGGUAAUGGA [Ruby 2]”, the figures for the “apparent KD of MS2 coat protein” value in the data set with MS2 coat protein [1] and in the data set with MS2 coat protein [2] were 22.4 nM and 34.7 nM, respectively.

Consider “AAGAAAGCAGGAUAUACAAGAAAGAAAGAAAAGAAAAGAAAACAUGAGGAUCACCCAUGUAGAAGGGCUUAGAA [EteRNA is fun!]”, for which the “apparent KD of MS2 coat protein” value in the data set on MS2 coat protein [1] came to 27.9 nM; in the data set on MS2 coat protein [2], 23.1 nM.

With “AGAACGUGAGGAUAUACUAACAAACCUCAACAAACAAACAGACAUGAGGAUCACCCAUGUAGAAGGCACAAAAA [EXC - 2]”, the “apparent KD of MS2 coat protein” value in the data set on MS2 coat protein [1] is 54.2 nM; with MS2 coat protein [2] it was 27.2 nM.

For “AACAAACAUGAGGAUCACCCAUGUCAGGAUAUGCAAACAACAAACAACAAACAACAAAGCAGAAGGGACGACAA [63%, Olong, 3]”, the “apparent KD of MS2 coat protein” value in the data set on MS2 coat protein [1] was 21.7 nM; in the data set on MS2 coat protein [2], 37.5 nM.

Regarding “GAAAAGUCAGGAUAUACAGAAAAAAAAACGAAAAAAAAUCUGUAGAAGGGACAUGAGGAUCACCCAUGUAAAAG [Mat - Exclusion 4 - Mayanna - D123]”, the “apparent KD of MS2 coat protein” value came out at 52.6 nM with MS2 coat protein [1] and 38.7 nM in the data set with MS2 coat protein [2].

With “AACUGACAUGAGGAUCACCCAUGUCAGGAUAUGACUUGACGAAAAAAAACACGUCAUGUCAGAAGGGACAUGGA [Design 89: Sub-opt Z]”, the results for the “apparent KD of MS2 coat protein” value in the data set on MS2 coat protein [1] and with MS2 coat protein [2] were 21.8 nM and 37.3 nM, respectively.

Turning to “AACAUGUAAGGAUAUGAAAGAAAAGAAAAGAAAGAAAAGAAUCAGAAGGUACAUGAGGAUCACCCAUGUAAGAA [EteRNA is fun!]”, the “apparent KD of MS2 coat protein” value in the data set on MS2 coat protein [1] came out at 34.7 nM; with MS2 coat protein [2], 26.7 nM.

Consider “AAAGGACAUGAGGAUCACCCAUGUGAGGAUAUCGGAAAAGGAAAAAAAAAAAAGAAGACGAGAAGGCACACCAA”, for which the “apparent KD of MS2 coat protein” value in the data set with MS2 coat protein [1] was 38.8 nM; in the data set on MS2 coat protein [2], 55.6 nM.

Regarding “GAUUAGUGAGGAUAUACAUGAGGAUCACCCAUGUGUAAAAAAAAACGCAAAAAAGAAUGUAGAAGGCACUAAAG [Mat - Exclusion 3 - Mayanna mod - D103]”, the “apparent KD of MS2 coat protein” value in the data set with MS2 coat protein [1] turned out to be 21.6 nM; in the data set with MS2 coat protein [2], 31.4 nM.

Turning to “AAAAAACAUGAGGAUCACCCAUGUGAGGAUAUCGCUAGUCAGUCAUCAGAGUGAGUGAUGAGAAGGCACAUAAA [Brourd 613 Mod 6 - Jieux - Exclusion 1]”, the results for the “apparent KD of MS2 coat protein” value in the data set on MS2 coat protein [1] and in the data set with MS2 coat protein [2] were 26.3 nM and 31.9 nM, respectively.

Regarding “ACAGUUACAGGAUAUACAUGGGUGAAAAAAGUAUAUCCACUACAUGAGGAUCACCCAUGUAGAAGGGUAACUGA [Ex2 Design 174: Random 3]”, the “apparent KD of MS2 coat protein” value with MS2 coat protein [1] came out at 18.6 nM; with MS2 coat protein [2], 12.3 nM.

As for “AACUGACAUGAGGAUCACCCAUGUCAGGAUAUGAUUUGACGAAAUAAAAUAAGUCAUAUCAGAAGGGACAUGGG [Design 83: Sub-opt VB]”, the “apparent KD of MS2 coat protein” value was found to be 26.2 nM with MS2 coat protein [1] and 21.2 nM in the data set on MS2 coat protein [2].

Take “AUAAUGUGAGGAUAUACAUGAGGAUCACCCAUGUAAUUAAAAAGGAGAGAAACAAUACGUAGAAGGUACAUUUA [JR_Exc003_Sub510]”: the “apparent KD of MS2 coat protein” value worked out at 26.7 nM with MS2 coat protein [1] and 29 nM in the data set with MS2 coat protein [2].

Turning to “UCAGGUGGAGGAUAUACAGCUCGAUCCUGGAAUAAAACGGCACAUGAGGAUCACCCAUGUAGAAGGCCACAAAA [Texeussoat]”, the “apparent KD of MS2 coat protein” value with MS2 coat protein [1] stood at 18.9 nM; in the data set on MS2 coat protein [2], 55.1 nM.

Turning to “AAAAAACAUGAGGAUCACCCAUGUGAGGAUAUCCUAAAGGGAAUAAAAUAACUCAAAAGGAGAAGGCGCAAAAA [Ex 1 May 31]”, the “apparent KD of MS2 coat protein” value came out at 60.2 nM with MS2 coat protein [1] and 46.3 nM in the data set on MS2 coat protein [2].

“AAAAAACAUGAGGAUCACCCAUGUGAGGAUAUCGGAAAAGGAAAAAAAAAAAAGAAGACGAGAAGGCACAAAGA”: the “apparent KD of MS2 coat protein” value was determined as 26.6 nM in the data set with MS2 coat protein [1] and 28.6 nM in the data set on MS2 coat protein [2].

On to “AAAACUAGAGGAUAUACGAACAUGUCAAAAGACGUGAAGGGACAUGAGGAUCACCCAUGUAGAAGGCUAGAAAA [JL Stem Breaker 11]”, for which the results for the “apparent KD of MS2 coat protein” value with MS2 coat protein [1] and with MS2 coat protein [2] were 55.6 nM and 71.9 nM, respectively.

Consider “AAAAAACAUGAGGAUCACCCAUGUGAGGAUAUGCAAAAAAAAAAAAAAAAAAAAAAAAGCAGAAGGCGCAAAAA [4 GC Strong]”, for which the “apparent KD of MS2 coat protein” value came to 20.6 nM in the data set with MS2 coat protein [1] and 38.9 nM in the data set with MS2 coat protein [2].

Regarding “GGCACUGUAGGAUAUACAUGAACAAUUGGCAUCCUCAGUCCACAUGAGGAUCACCCAUGUAGAAGGAUAGAAAA [Besorees]”, the results for the “apparent KD of MS2 coat protein” value with MS2 coat protein [1] and in the data set on MS2 coat protein [2] were 131 nM and 91.1 nM, respectively.

For “AAAAAACAUGAGGAUCACCCAUGUGAGGAUAUGACGUAAAUAAAGAAAGAAGAAAUCGUCAGAAGGCACACCAA [55%, Disencluded 2, 5]”, the figures for the “apparent KD of MS2 coat protein” value in the data set on MS2 coat protein [1] and in the data set with MS2 coat protein [2] were 29.8 nM and 43.1 nM, respectively.

“AGCUAGUCAGGAUAUACGGACAUGUCAGGAGACGUGAAGGGACAUGAGGAUCACCCAUGUAGAAGGGACUAGCG [74%, Web mod - With 4 more G's]”: the “apparent KD of MS2 coat protein” value in the data set with MS2 coat protein [1] amounted to 35.5 nM; with MS2 coat protein [2] it was 106 nM.
